{
  "source": "patent US20240158799",
  "about": "“[…] THAT […] BIND TO A SARS-COV-2 VIRUS NUCLEOCAPSID PROTEIN” (IQ SCIENCE LIMITED, published 2024)",
  "binders": {"B1": {"name": "SS04 (ssDNA)", "DNA": "TAACCACATAACCGCAAGACGAACGAACCATATAACGCGTAGTAACATCCAAGGCGCCCTATTGTGCTACTCTCCTCGT"}, "B2": {"name": "SS18 (ssDNA)", "DNA": "TAACCACATAACCGCAAGACCAGCAGAAAACTCAACATAAGCAGCAGTTCGGGCGCTACTATTGTGCTACTCTCCTCGT"}, "B3": {"name": "SS12 (ssDNA)", "DNA": "TAACCACATAACCGCAAGACGATGGCCGCAACCGAGAAACTATGACGATGGATCACGGCTATTGTGCTACTCTCCTCGT"}, "B4": {"name": "SS20 (ssDNA)", "DNA": "TAACCACATAACCGCAAGACGAACACCGATGCCGCGCACAATCGTGTAAACGGATGTCCTATTGTGCTACTCTCCTCGT"}, "B5": {"name": "SS48 (ssDNA)", "DNA": "TAACCACATAACCGCAAGACGACGACACAAAAGCATTTCGGCAATCCGACAGTGGTCCATATTGTGCTACTCTCCTCGT"}, "B6": {"name": "SS10 (ssDNA)", "DNA": "TAACCACATAACCGCAAGACGCACGCAAAACTTTCAGTAATCCTAAGATGCCATGTTACTATTGTGCTACTCTCCTCGT"}, "B7": {"name": "N11 (ssDNA)", "DNA": "TAACCACATAACCGCAAGACGACGCGATACAAAACACTACTAATCTCTCGTCGCACTAGTATTGTGCTACTCTCCTCGT"}, "B8": {"name": "N06 (ssDNA)", "DNA": "TAACCACATAACCGCAAGATCCCGATAGACCCGCGTCTCATGTACCTTACATGCTACGATATTGTGCTACTCTCCTCGT"}, "B9": {"name": "N08 (ssDNA)", "DNA": "TAACCACATAACCGCAAGACCACACGCACGAAAACAATTGACATGAAATTTACGGCTCTTATTGTGCTACTCTCCTCGT"}},
  "data": [
    {"target": "SARS-CoV-2 spike protein (S1/S2 complex) (SARS-CoV-2, UniProt P0DTC2 P0DTC2:14-1213)", "values": [
      {"binder": "B1", "binding result": "binds"},
      {"binder": "B2", "binding result": "binds"},
      {"binder": "B3", "binding result": "binds"},
      {"binder": "B4", "binding result": "binds"},
      {"binder": "B5", "binding result": "binds"},
      {"binder": "B6", "binding result": "binds"}
    ]},
    {"target": "SARS-CoV-2 nucleocapsid protein (SARS-CoV-2, UniProt P0DTC9 P0DTC9:1-419)", "units": {"Kd": "nM"}, "values": [
      {"binder": "B7", "Kd": 29.6},
      {"binder": "B8", "Kd": 25.1},
      {"binder": "B9", "Kd": 18.7}
    ]}
  ]
}
